Test [1] concerns the target SARS-CoV-1.
Test [2] deals with SARS-CoV-2 RBD (SARS-CoV-2). The test is described as follows: sVNT, cPass kit with SARS-CoV-2 RBD-HRP.
The target in test [3] is SARS-CoV-1 RBD (SARS-CoV). The test is described as follows: ELISA, 100 ng coated RBD, anti-human IgG-HRP.
Test [4] addresses SARS-CoV-2 RBD (SARS-CoV-2). The test can be described thus: ELISA, 100 ng coated RBD, anti-human IgG-HRP.
The target of test [5] is SARS-CoV-1 RBD (SARS-CoV). The test is described as follows: sVNT, cPass kit format with SARS-CoV-1 RBD-HRP.
The target in test [6] is SARS-CoV-2 Mu.
The target of test [7] is Bat CoV BANAL-52.
Test [8] has as its target SARS-CoV-2 Lambda (SARS-CoV-2 Lambda).
The target is the same in test [9]. The source holds these as a separate data set.
The target of test [10] is SARS-CoV-1. This is another data set of the same source.
Test [11] addresses SARS-CoV-2 Mu. This is another data set of the same source.
Test [12] has as its target SARS-CoV-2 Gamma.
The target in test [13] is Bat CoV LYRa11.
The target of test [14] is Bat CoV Rs2018B (SC1r-CoV Rs2018B).
The target in test [15] is Pangolin CoV GD-1.
In test [16] the target is Bat CoV BANAL-52. This is another data set of the same source.
The target of test [17] is Bat CoV RsSHC014 (SC1r-CoV RsSHC014).
The target in test [18] is Bat CoV WIV-1 (SC1r-CoV WIV-1).
Test [19] concerns the target SARS-CoV-2 Delta Plus.
Test [20] has as its target SARS-CoV-2 Delta.
The target in test [21] is SARS-CoV-2 Gamma. This is another data set of the same source.

Like-named read-outs stand apart in the source and are kept apart here.

The substance CR3022 gave an IC50 in test [1] of 0.397 mg/L.
On to CR3022 (antibody), for which, in [2], the sVNT SARS-CoV-2 (% I) stood at 24.2%. Further, the Binding SARS-CoV-1 in test [3] was found to be 1.19. Besides, the Binding SARS-CoV-2 in test [4] stood at 1.46. The sVNT SARS-CoV-1 (% I) in test [5] turned out to be 32.5%.
Consider LyCoV-1404, for which the IC50 in test [6] was 0.067 mg/L; in test [7], 0.12 mg/L; in test [8] it was 0.077 mg/L.
Substance LyCoV-1404 (Eli Lily) (antibody) returned a sVNT SARS-CoV-2 (% I) in [2] of 0.144%. For the same substance, the Binding SARS-CoV-1 in [3] was 1.54. In test [4], the Binding SARS-CoV-2 was determined as 0.445. The substance further showed a sVNT SARS-CoV-1 (% I) in [5] of 94.5%.
Consider S2X259, for which the IC50 in test [9] stood at 0.047 mg/L; in test [10] it was 0.871 mg/L; in test [11], 0.067 mg/L; in test [12] it was 0.102 mg/L; in [13], 0.073 mg/L; in [14] it was 0.142 mg/L. The concentration for half-maximal inhibition (IC50) in test [15] was determined as 0.112 mg/L; in [16], 0.097 mg/L; in [17] it was 0.133 mg/L; in [18] it was 0.117 mg/L.
In turn, S2X259 (VirBiotech) (antibody) had a sVNT SARS-CoV-2 (% I) in [2] of 94%. The Binding SARS-CoV-1 in test [3] amounted to 0.973. For the same substance, in test [4], the Binding SARS-CoV-2 came out at 1.73. The sVNT SARS-CoV-1 (% I) in [5] stood at 92.8%.
As for S309, the half-inhibitory concentration (IC50) in test [19] was determined as 0.24 mg/L; in test [20], 0.199 mg/L; in [21], 0.172 mg/L.
Take S309 (Sotrovimab, GSK) (antibody): the sVNT SARS-CoV-2 (% I) in test [2] came out at 39.6%. This substance also yielded a Binding SARS-CoV-1 in test [3] of 1.22. Further, the Binding SARS-CoV-2 in [4] was 1.55. Besides, the sVNT SARS-CoV-1 (% I) in test [5] was found to be 36.5%.

The record behind these values is patent US20240254204A1.
